This note sets out measurements from patent US20250269056A1 (published 2025).

For this experiment, the target named is T1, epidermal growth factor receptor (EGFR) on EGFR-expressing cell lines (HeLa, HT-29, MRC-5, A549) (UniProt P00533 25-1210).
T1 construct: whole, on cells; EGFR expression in the cell lines was verified by Western blot; HEK293T served as the EGFR-negative line; also called EGF receptor
The experiment can be described thus: fluorescence microscopy of Alexa Fluor 488-labelled phage on HeLa cells.

B1: M13KO7 helper phage (no display) (other)
chain: AETVESCLAKPHTENSFTNVWKDDKTLDRYANYEGCLWNATGVVVCTGDETQCYGTWVPIGLAIPENEGGGSEGGGSEGGGSEGGGTKPPEYGDTPIPGYTYINPLDGTYPPGTEQNPANPNPSLEESQPLNTFMFQNNRFRNRQGALTVYTGTVTQGTDPVKTYYQYTPVSSKAMYDAYWNGKFRDCAFHSGFNEDPFVCEYQGQSSDLPQPPVNAGGGSGGGSGGGSEGGGSEGGGSEGGGSEGGGSGGGSGSGDFDYEKMANANKGAMTENADENALQSDAKGKLDSVATDYGAAIDGFIGDVSGLANGNGATGDFAGSNSQMAQVGDGDNSPLMNNFRQYLPSLPQSVECRPFVFSAGKPYEFSIDCDKINLFRGVFAFLLYVATFMYVFSTFANILRNKES
notes: mature; Whole phage particle without a ligand, labelled with Alexa Fluor 488 in the localisation experiment; also called EGF- phage; non-displaying phage
For B1, the binding result is “no binding (tested: 5×10^7 virions/mL)”.
